# B1: TPR t1 (parent)
# chain: GACCAAUCUGCCCUCAGAGCUCGAGAACAUCUUCGGAUGCAGAGGAGGCAGGCUUCGGUGGCGCGAUAGCGCCAACGUCCUCAACCUCCAAUGCAUCCCACCACAUGAUGAUGCCUGAAGAGCCUUGGUUUUUUG
# Variants of: B1
# Test: polymerase ribozyme fitness, log enrichment relative to wild type (log ratio); higher = more active; in vitro selection for triplet polymerase activity
# Procedure, shortened: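 To select mutant libraries of each subunit of a heterodimeric triplet polymerase ribozyme, built by PCR and transcribed, each was annealed with a biotinylated primer, partner subunit and triplets, then incubated frozen at −7 °C. Extended constructs were gel-excised, captured on streptavidin beads and amplified by RT-PCR, in one round carried out in triplicate. Illumina sequencing of input and output libraries kept genotypes with ≥10 input reads and ≥1 read per output. Fitness is the base-2 logarithm of genotype enrichment relative to wild-type enrichment, from inverse-variance-weighted replicate averages.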
row,Variant,polymerase ribozyme fitness (log ratio)
1,GACCAAUCUGCCCUCAGAGCUCGAGAACAUCUUCGGAUGCAGAGGAGGCAGGCUUCGGUGGCGCGAUAGCGCCAACGUACUCAACCUCCAAUGCAUCCCACCACAUGAUGAUGCCUGAAGAGCAUUGGUUUUUUG,0.574
2,GACCAAUCUGCCCUCAGAGCUCGAGAACAUCUUCGGAUGCAGAGGAGGCAGGCUUCGGUGGCGCGAUAGCGCCAACGUGCUCAACCUCCAAUGAAUCCCACCACAUGAUGAUGCCUGAAGAGCCUUGGUUUUUUG,-2.62
3,GACCAAUCUGCCCUCAGAGCUCGAGAACAUCUUCGGAUGCAGAGGAGGCAGGCUUCGGUGGCGCGAUAGCGCCAACGUUUUCAACCUCCAAUGCAUCCCACCACAUGAUGAUGCCCGAAGAGCCUUGGUUUUUUG,-4.27
4,GACCAAUCUGCCCUCAGAGCUCGAGAACAUCUUCGGAUGCAGAGGAGGCAGGCUUCGGUGGCGCGAUAGCGCCAACGUGCUCAACCUCCAAUGCAUCCCACCACAUGAUGAUGCCUGAAGUGCCUUGGUUUUUUG,0.316
5,GACCAAUCUGCCCUCAGAGCUCGAGAACAUCUUCGGAUGCAGAGGAGGCAGGCUUCGGUGGCGCGAUAGCGCCAACGUACUUAACCUCCAAUGCAUCCCACCACAUGAUGAUGCCUGAAGAGCCUUGGUUUUUUG,-0.745
6,GACCAAUCUGCCCUCAGAGCUCGAGAACAUCUUCGGAUGCAGAGGAGGCAGGCUUCGGUGGCGCGAUAGCGCCAACGUACUCAACCUCCAAUGCAUCCCACCACAUGAUAAUGCCUGAAGAGCCUUGGUUUUUUG,-2.55
7,GACCAAUCUGCCCUCAGAGCUCGAGAACAUCUUCGGAUGCAGAGGAGGCAGGCUUCGGUGGCGCGAUAGCGCCAACGCCCUCAACCUCCAAUGCAUCCCACCACAUGAUGAAGGCUGAAGAGCCUUGGUUUUUUG,-0.26
8,GACCAAUCUGCCCUCAGAGCUCGAGAACAUCUUCGGAUGCAGAGGAGGCAGGCUUCGGUGGCGCGAUAGCGCCAACGUGCUCAACCUCCAAUGCAUCCCACCACAUGAUGAUGCCUGAAGAGCCUUGGUUGUUUG,-1.06
9,GACCAAUCUGCCCUCAGAGCUCGAGAACAUCUUCGGAUGCAGAGGAGGCAGGCUUCGGUGGCGCGAUAGCGCCAACGUAAUCAACCUACAAUGCAUCCCACCACAUGAUGAUGCCUGAAGAGCCUUGGUUUUUUG,-5.16
10,GACCAAUCUGCCCUCAGAGCUCGAGAACAUCUUCGGAUGCAGAGGAGGCAGGCUUCGGUGGCGCGAUAGCGCCAACGUGCUCAACCUCCAAUUCAUCCCACCACAUGAUGAUGCGUGAAGAGCCUUGGUUUUUUG,-4.32
11,GACCAAUCUGCCCUCAGAGCUCGAGAACAUCUUCGGAUGCAGAGGAGGCAGGCUUCGGUGGCGCGAUAGCGCCAACGUUCUCAACCUCCAAUGCAUCCCACCACAUGAUGAUGCCUGAAGCGCCUUGGUUUUUUG,1.81
12,GACCAAUCUGCCCUCAGAGCUCGAGAACAUCUUCGGAUGCAGAGGAGGCAGGCUUCGGUGGCGCGAUAGCGCCAACGCCCUCAACCUCCAAUGCAUCCCACCACAUGAAGAUGCCUGAAGAGCCUUGAUUUUUUG,-4.56
13,GACCAAUCUGCCCUCAGAGCUCGAGAACAUCUUCGGAUGCAGAGGAGGCAGGCUUCGGUGGCGCGAUAGCGCCAACGUGCUCAACCUCCAAUGCAUCCCACCACAUGAUGAUGCCUGAAGAGCCUGGGUUUUUUG,-2.94
14,GACCAAUCUGCCCUCAGAGCUCGAGAACAUCUUCGGAUGCAGAGGAGGCAGGCUUCGGUGGCGCGAUAGCGCCAACGUGCUCACCCUCCAAUGCAUCCCACCACAUGAUGAUGCCUGAAGAGCCUUGGUUUUUUG,-2.61
15,GACCAAUCUGCCCUCAGAGCUCGAGAACAUCUUCGGAUGCAGAGGAGGCAGGCUUCGGUGGCGCGAUAGCGCCAACGGCCUCAACCUCCAAUGCAUCCCACCACAUGAUGAUGGCUGAAGAGCCUUGGAUUUUUG,-4.16
16,GACCAAUCUGCCCUCAGAGCUCGAGAACAUCUUCGGAUGCAGAGGAGGCAGGCUUCGGUGGCGCGAUAGCGCCAACGGCCUCAACCUCCAAUGCAUCCCACCACAUGAUGAUGCCUGAAAAGCCUUGGUUUUUUG,0.634
17,GACCAAUCUGCCCUCAGAGCUCGAGAACAUCUUCGGAUGCAGAGGAGGCAGGCUUCGGUGGCGCGAUAGCGCCAACGCCCUCAACCUCCAAUGCAGCCCACCACAUGAUGAUGCCUGAAGAGCCUUGGUUUUUUG,-0.935
18,GACCAAUCUGCCCUCAGAGCUCGAGAACAUCUUCGGAUGCAGAGGAGGCAGGCUUCGGUGGCGCGAUAGCGCCAACGUGCUCACCCUCCAAUGCAUCCCACCAAAUGAUGAUGCCUGAAGAGCCUUGGUUUUUUG,-4.75
19,GACCAAUCUGCCCUCAGAGCUCGAGAACAUCUUCGGAUGCAGAGGAGGCAGGCUUCGGUGGCGCGAUAGCGCCAACGUACUCGACCUCCAAUGCAUCCCACCACAUGAUGAUGCGUGAAGAGACUUGGUUGUUUG,-4.48
20,GACCAAUCUGCCCUCAGAGCUCGAGAACAUCUUCGGAUGCAGAGGAGGCAGGCUUCGGUGGCGCGAUAGCGCCAACGUUCUCAACCUCCAAUGCAUCCCACCACAUGAUGUAGCCUGAAGAGCAUUGGUUUUUUG,1.11
21,GACCAAUCUGCCCUCAGAGCUCGAGAACAUCUUCGGAUGCAGAGGAGGCAGGCUUCGGUGGCGCGAUAGCGCCAACGUACUCAACCUCCAAUGCAUCCAACCACAUGAUGAUGCCUGAAGAGCCUUGGUUUUUUG,-6.57

row,Variant,polymerase ribozyme fitness (log ratio)
1,GACCAAUCUGCCCUCAGAGCUCGAGAACAUCUUCGGAUGCAGAGGAGGCAGGCUUCGGUGGCGCGAUAGCGCCAACGUUAUCAACCUCCAAUGCAUCCCACCACAUGAUGAUGCCUGAAGAGCCUUGGUUUUUUG,-3.65
2,GACCAAUCUGCCCUCAGAGCUCGAGAACAUCUUCGGAUGCAGAGGAGGCAGGCUUCGGUGGCGCGAUAGCGCCAACGUACUCAACCUCCAAUGCAUCCCACCACAUGAUGAUGCCUGAAGAGUCUUGGUUUUUUG,0.304
3,GACCAAUCUGCCCUCAGAGCUCGAGAACAUCUUCGGAUGCAGAGGAGGCAGGCUUCGGUGGCGCGAUAGCGCCAACGUGCUCAACCUCCAAUGCAUCCCACUACAUGAUGAUGCCUGAAGAGCCUUGGUUUUUUG,-4.67
4,GACCAAUCUGCCCUCAGAGCUCGAGAACAUCUUCGGAUGCAGAGGAGGCAGGCUUCGGUGGCGCGAUAGCGCCAACGCCCUCAACCGCCAAUGCAUCCCACCACAUGAUGAUGCCUGAAGAGCCUAGGUUUUUUG,-2.18
5,GACCAAUCUGCCCUCAGAGCUCGAGAACAUCUUCGGAUGCAGAGGAGGCAGGCUUCGGUGGCGCGAUAGCGCCAACGUGCUCAACCUCCAAUGGAUCCCACCACAUGAUGAUACCUGAAGAGCCUUGGUUUUUUG,-5.05
6,GACCAAUCUGCCCUCAGAGCUCGAGAACAUCUUCGGAUGCAGAGGAGGCAGGCUUCGGUGGCGCGAUAGCGCCAACGCCCUCAACCUCCAAUGCAUCCCACCACAUGAUGAUGCCUUAAGAGCCUUGCUUUUUUC,-6.04
7,GACCAAUCUGCCCUCAGAGCUCGAGAACAUCUUCGGAUGCAGAGGAGGCAGGCUUCGGUGGCGCGAUAGCGCCAACGUGCUCAACCUCUAAUGCAUCCCACCACAUGAUGAUGCCUAAAGAGCCUUGGUUUUUUG,-4.75
8,GACCAAUCUGCCCUCAGAGCUCGAGAACAUCUUCGGAUGCAGAGGAGGCAGGCUUCGGUGGCGCGAUAGCGCCAACGGCCUCAACCUCCAAUGCCUCCCACCACAUGAUGAUGCCUGAAGAGCCUUGGUUUUUUG,-0.597
9,GACCAAUCUGCCCUCAGAGCUCGAGAACAUCUUCGGAUGCAGAGGAGGCAGGCUUCGGUGGCGCGAUAGCGCCAACGUACUCAACCUCCACUGCAUCCCACCACAUGAUGAUGCCUGAAGAGCCUUGGUUUUUUG,-3.69
10,GACCAAUCUGCCCUCAGAGCUCGAGAACAUCUUCGGAUGCAGAGGAGGCAGGCUUCGGUGGCGCGAUAGCGCCAACGGCCUCAACCUCCAAUGCGUCCCACCACAUGAUGAUGCCUGAAGAGCCGUGGUUUUUUG,-1.07
11,GACCAAUCUGCCCUCAGAGCUCGAGAACAUCUUCGGAUGCAGAGGAGGCAGGCUUCGGUGGCGCGAUAGCGCCAACGGCCUCAACCUCAAAUGCAUCCCACCACAUGAUGAUGCCUGAAGAGCCUUGGUUUUUUG,-3.29
12,GACCAAUCUGCCCUCAGAGCUCGAGAACAUCUUCGGAUGCAGAGGAGGCAGGCUUCGGUGGCGCGAUAGCGCCAACGGCCUCAACCUCCAAUGCAUCCCACGACAUGAUGAUGCCUGAAGAGCCUUGGUUUUUUG,-4.94
13,GACCAAUCUGCCCUCAGAGCUCGAGAACAUCUUCGGAUGCAGAGGAGGCAGGCUUCGGUGGCGCGAUAGCGCCAACGGCCUCAACCUCCAAUGCAUCCCACCACAUGAUGAUGCCAGAAGAGCCUUGGUUUUUUG,-3
14,GACCAAUCUGCCCUCAGAGCUCGAGAACAUCUUCGGAUGCAGAGGAGGCAGGCUUCGGUGGCGCGAUAGCGCCAACGUGCUCAACCUCAAAUGCAUCCCACCACAUGAUGAUGCCUGAAGAGCCUUUGUUUUUUG,-4.91
15,GACCAAUCUGCCCUCAGAGCUCGAGAACAUCUUCGGAUGCAGAGGAGGCAGGCUUCGGUGGCGCGAUAGCGCCAACGUACUCAACCUCCAAUGCAUCCCACCACAUGAUGAUGCAUGAAGAGCCUUCGUUUUUUG,-1.07
16,GACCAAUCUGCCCUCAGAGCUCGAGAACAUCUUCGGAUGCAGAGGAGGCAGGCUUCGGUGGCGCGAUAGCGCCAACGUGCUCGACCUCCAAUGCAUCCCACCACAUGAUGAUGCCUCAAGAGCCUUGGUUUUUUG,-5.42
17,GACCAAUCUGCCCUCAGAGCUCGAGAACAUCUUCGGAUGCAGAGGAGGCAGGCUUCGGUGGCGCGAUAGCGCCAACGUUUUCAACCUCCAAUGCAUCCCACCAUAUGAUGAUGCCUGAAGAGCCUUGGUUUUUUG,-1.54
18,GACCAAUCUGCCCUCAGAGCUCGAGAACAUCUUCGGAUGCAGAGGAGGCAGGCUUCGGUGGCGCGAUAGCGCCAACGUACUUAACCUCCAAUGAAUCCCACCACAUGAUGAUACCUGAAGAGCCUUGUUUUUUUG,-5.6
19,GACCAAUCUGCCCUCAGAGCUCGAGAACAUCUUCGGAUGCAGAGGAGGCAGGCUUCGGUGGCGCGAUAGCGCCAACGUUCUCAACCUCCGAUGCAUCCCACCACAUUAUGAUGCCUGAAGAGCCUUGGUUUUUUG,-4.88
20,GACCAAUCUGCCCUCAGAGCUCGAGAACAUCUUCGGAUGCAGAGGAGGCAGGCUUCGGUGGCGCGAUAGCGCCAACGGCCUCAACCUCCAAUGCAUCUCACCACAUGAUGAUGCCUGAAGAGCCUUGGUUUUUUG,-0.646
21,GACCAAUCUGCCCUCAGAGCUCGAGAACAUCUUCGGAUGCAGAGGAGGCAGGCUUCGGUGGCGCGAUAGCGCCAACGUGCUCAACCUCCAAUGCAUCCCACCACAUGAUGAUGCCUGAAGAGCGUUGGUUUUUUG,-0.0918
